Literature values in patent US20240100071A1, “COMBINATION THERAPY FOR PATIENTS HAVING ACUTE AND/OR PERSISTENT DYSPNEA” (S-Form Pharma, priority 2020, published 2024).
Like-named read-outs stand apart in the source and are kept apart here.

Conditions: human plasma 24° C., cited from earlier work; for Average ADM recovery (N = 5): 10 ng ADM/ml; for Average loss of immune reactivity: MR-ADM/CT-ADM sandwich immune assay

Human Adrenomedullin [hADM]
Average ADM recovery (N = 5) (0 h): 100 | Average ADM recovery (N = 5) (2 h): 99.2 | Loss of immune reactivity %/h (2 h): 0.4 %/h | Average ADM recovery (N = 5) (4 h): 96.4 | Loss of immune reactivity %/h (4 h): 0.8 %/h | Average ADM recovery (N = 5) (8 h): 88.2 | Loss of immune reactivity %/h (8 h): 1.5 %/h | Average loss of immune reactivity: Average: 0.9%/h | Average loss of immune reactivity (listed as ADM): 0.9 %/h
